Assay results reported in doi:10.1101/763847.

Target: single-bond CDH23 fusion protein (EC1-5/EC3-5 Fc heterodimer with one EC1-2 binding domain) (mouse)
Experiment: single-molecule dynamic force spectroscopy

## single-bond PCDH15 fusion protein (EC1-5/EC3-5 Fc heterodimer with one EC1-2 binding domain) (Fc fusion)
  force sensitivity fβ (force that accelerates the off-rate e-fold): 14.3 pN
  koff: 0.62 s⁻¹
  mean lifetime (1/koff) at zero force: 1.6 s
  mean zero-force lifetime in 50 uM Ca2+: 0.87 s
  single-bond lifetime at a resting tension of 10 pN (calculated from the fit): 1 s
